Values joined by “and” are separate entries in the source; they are usually repeats but may differ in a detail not shown here. Identical values can stand only once.

For assay [1], the target named is recombinant KIR2DL1 protein (entire extracellular domain, produced in E. coli, immobilized) (human) (UniProt P43626). Nature of the assay: Biacore, KIR2DL1 chip; first Ab EB6 vs competitor (second Ab) Pan2D. (In general: Surface plasmon resonance follows binding to a sensor surface in real time, without labels.)
Assay [2] shares this target. Nature of the assay: Biacore, KIR2DL1 chip; second Ab injected alone.
The target is the same in assay [3]. Nature of the assay: Biacore, KIR2DL1 chip; first Ab EB6 vs competitor (second Ab) DF200.
Assay [4] has the same target. Nature of the assay: Biacore, KIR2DL1 chip; first Ab EB6 vs competitor (second Ab) 1-6F1.
Assay [5] has the same target. Nature of the assay: Biacore, KIR2DL1 chip; first Ab EB6 vs competitor (second Ab) 1-7F9.
The target is the same in assay [6]. Nature of the assay: Biacore, KIR2DL1 chip; first Ab EB6 vs competitor (second Ab) 1-4F1.
The target is the same in assay [7]. Nature of the assay: Biacore, KIR2DL1 chip; first Ab EB6 vs competitor (second Ab) EB6 (self).
For assay [8], the target named is recombinant KIR2DL3 protein (entire extracellular domain, produced in E. coli, immobilized) (human) (UniProt P43628). Nature of the assay: Biacore, KIR2DL3 chip; second Ab injected alone.
Assay [9] addresses immobilized KIR 2DS1 (UniProt Q14954). Nature of the assay: Biacore, KIR2DS1 chip; first Ab Pan2D vs competitor (second Ab) 1-7F9.
For assay [10] the target is unchanged. Nature of the assay: Biacore, KIR2DS1 chip; second Ab injected alone.
Assay [11] concerns the target recombinant KIR2DL3 protein (entire extracellular domain, produced in E. coli, immobilized) (human) (UniProt P43628). Nature of the assay: Biacore, KIR2DL3 chip; first Ab Pan2D vs competitor (second Ab) DF200.
Assay [12] has the same target. Nature of the assay: Biacore, KIR2DL3 chip; first Ab Pan2D vs competitor (second Ab) 1-4F1.
Assay [13] concerns the target recombinant KIR2DL1 protein (entire extracellular domain, produced in E. coli, immobilized) (human) (UniProt P43626). Nature of the assay: Biacore, KIR2DL1 chip; first Ab Pan2D vs competitor (second Ab) 1-7F9.
For assay [14] the target is unchanged. Nature of the assay: Biacore, KIR2DL1 chip; first Ab Pan2D vs competitor (second Ab) 1-6F1.
Assay [15] shares this target. Nature of the assay: Biacore, KIR2DL1 chip; first Ab Pan2D vs competitor (second Ab) EB6.
The target in assay [16] is recombinant KIR2DL3 protein (entire extracellular domain, produced in E. coli, immobilized) (human) (UniProt P43628). Nature of the assay: Biacore, KIR2DL3 chip; first Ab Pan2D vs competitor (second Ab) 1-6F1.
Assay [17] deals with recombinant KIR2DL1 protein (entire extracellular domain, produced in E. coli, immobilized) (human) (UniProt P43626). Nature of the assay: Biacore, KIR2DL1 chip; first Ab Pan2D vs competitor (second Ab) 1-4F1.
The target of assay [18] is recombinant KIR2DL3 protein (entire extracellular domain, produced in E. coli, immobilized) (human) (UniProt P43628). Nature of the assay: Biacore, KIR2DL3 chip; first Ab Pan2D vs competitor (second Ab) 1-6F5.
The target of assay [19] is recombinant KIR2DL1 protein (entire extracellular domain, produced in E. coli, immobilized) (human) (UniProt P43626). Nature of the assay: Biacore, KIR2DL1 chip; first Ab Pan2D vs competitor (second Ab) 1-6F5.
Assay [20] deals with immobilized KIR 2DS1 (UniProt Q14954). Nature of the assay: Biacore, KIR2DS1 chip; first Ab Pan2D vs competitor (second Ab) 1-4F1.
In assay [21] the target is recombinant KIR2DL3 protein (entire extracellular domain, produced in E. coli, immobilized) (human) (UniProt P43628). Nature of the assay: Biacore, KIR2DL3 chip; first Ab Pan2D vs competitor (second Ab) gl183.
Assay [22] has the same target. Nature of the assay: Biacore, KIR2DL3 chip; first Ab Pan2D vs competitor (second Ab) 1-7F9.
The target of assay [23] is immobilized KIR 2DS1 (UniProt Q14954). Nature of the assay: Biacore, KIR2DS1 chip; first Ab Pan2D vs competitor (second Ab) DF200.
The target of assay [24] is recombinant KIR2DL1 protein (entire extracellular domain, produced in E. coli, immobilized) (human) (UniProt P43626). Nature of the assay: Biacore, KIR2DL1 chip; first Ab Pan2D vs competitor (second Ab) DF200.
Assay [25] addresses recombinant KIR2DL3 protein (entire extracellular domain, produced in E. coli, immobilized) (human) (UniProt P43628). Nature of the assay: Biacore, KIR2DL3 chip; first Ab gl183 vs competitor (second Ab) Pan2D.
The target is the same in assay [26]. Nature of the assay: Biacore, KIR2DL3 chip; first Ab gl183 vs competitor (second Ab) 1-7F9.
Assay [27] has the same target. Nature of the assay: Biacore, KIR2DL3 chip; first Ab gl183 vs competitor (second Ab) 1-6F1.
For assay [28] the target is unchanged. Nature of the assay: Biacore, KIR2DL3 chip; first Ab gl183 vs competitor (second Ab) DF200.
The target is the same in assay [29]. Nature of the assay: Biacore, KIR2DL3 chip; first Ab gl183 vs competitor (second Ab) 1-4F1.
Assay [30] concerns the target immobilized KIR 2DS1 (UniProt Q14954). Nature of the assay: Biacore, KIR2DS1 chip; first Ab DF200 vs competitor (second Ab) 1-7F9.
The target of assay [31] is recombinant KIR2DL1 protein (entire extracellular domain, produced in E. coli, immobilized) (human) (UniProt P43626). Nature of the assay: Biacore, KIR2DL1 chip; first Ab DF200 vs competitor (second Ab) 1-6F1.
The target of assay [32] is immobilized KIR 2DS1 (UniProt Q14954). Nature of the assay: Biacore, KIR2DS1 chip; first Ab DF200 vs competitor (second Ab) 1-4F1.
The target of assay [33] is recombinant KIR2DL3 protein (entire extracellular domain, produced in E. coli, immobilized) (human) (UniProt P43628). Nature of the assay: Biacore, KIR2DL3 chip; first Ab DF200 vs competitor (second Ab) 1-6F5.
For assay [34] the target is unchanged. Nature of the assay: Biacore, KIR2DL3 chip; first Ab DF200 vs competitor (second Ab) 1-4F1.
Assay [35] shares this target. Nature of the assay: Biacore, KIR2DL3 chip; first Ab DF200 vs competitor (second Ab) 1-6F1.
Assay [36] deals with recombinant KIR2DL1 protein (entire extracellular domain, produced in E. coli, immobilized) (human) (UniProt P43626). Nature of the assay: Biacore, KIR2DL1 chip; first Ab DF200 vs competitor (second Ab) Pan2D.
The target of assay [37] is recombinant KIR2DL3 protein (entire extracellular domain, produced in E. coli, immobilized) (human) (UniProt P43628). Nature of the assay: Biacore, KIR2DL3 chip; first Ab DF200 vs competitor (second Ab) Pan2D.
For assay [38] the target is unchanged. Nature of the assay: Biacore, KIR2DL3 chip; first Ab DF200 vs competitor (second Ab) gl183.
The target in assay [39] is recombinant KIR2DL1 protein (entire extracellular domain, produced in E. coli, immobilized) (human) (UniProt P43626). Nature of the assay: Biacore, KIR2DL1 chip; first Ab DF200 vs competitor (second Ab) 1-4F1.
Assay [40] concerns the target immobilized KIR 2DS1 (UniProt Q14954). Nature of the assay: Biacore, KIR2DS1 chip; first Ab DF200 vs competitor (second Ab) Pan2D.
The target of assay [41] is recombinant KIR2DL1 protein (entire extracellular domain, produced in E. coli, immobilized) (human) (UniProt P43626). Nature of the assay: Biacore, KIR2DL1 chip; first Ab DF200 vs competitor (second Ab) 1-6F5.
Assay [42] addresses recombinant KIR2DL3 protein (entire extracellular domain, produced in E. coli, immobilized) (human) (UniProt P43628). Nature of the assay: Biacore, KIR2DL3 chip; first Ab DF200 vs competitor (second Ab) 1-7F9.
Assay [43] has as its target recombinant KIR2DL1 protein (entire extracellular domain, produced in E. coli, immobilized) (human) (UniProt P43626). Nature of the assay: Biacore, KIR2DL1 chip; first Ab DF200 vs competitor (second Ab) EB6.
The target is the same in assay [44]. Nature of the assay: Biacore, KIR2DL1 chip; first Ab DF200 vs competitor (second Ab) 1-7F9.

Chain of recombinant KIR2DL1 protein (entire extracellular domain, produced in E. coli, immobilized) (human) (P43626 22-245): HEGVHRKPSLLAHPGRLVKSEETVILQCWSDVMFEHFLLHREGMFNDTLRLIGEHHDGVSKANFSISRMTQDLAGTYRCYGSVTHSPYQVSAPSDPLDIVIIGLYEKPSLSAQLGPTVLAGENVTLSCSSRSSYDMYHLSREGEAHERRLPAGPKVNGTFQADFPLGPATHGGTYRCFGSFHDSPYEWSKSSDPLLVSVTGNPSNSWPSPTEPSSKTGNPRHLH
Chain of immobilized KIR 2DS1 (Q14954 22-245 limits assumed): as the sequence (P43626 22-245) above, with T70K, V90L, L114P, P154T, D163N, H182R, K216E counted along it
Chain of recombinant KIR2DL3 protein (entire extracellular domain, produced in E. coli, immobilized) (human) (P43628 22-245): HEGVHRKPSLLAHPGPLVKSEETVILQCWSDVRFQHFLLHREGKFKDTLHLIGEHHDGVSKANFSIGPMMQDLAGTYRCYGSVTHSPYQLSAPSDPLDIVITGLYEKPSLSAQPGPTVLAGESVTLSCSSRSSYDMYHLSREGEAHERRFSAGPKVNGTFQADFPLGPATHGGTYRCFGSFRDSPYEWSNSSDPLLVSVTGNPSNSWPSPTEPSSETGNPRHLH

On to EB6 (IgG1 anti KIR2DL1) (antibody), for which the percent inhibition of second antibody binding came out at 40% in [1]; 60% in assay [3]; 23% in assay [4]; 65% in assay [5]; 48% in assay [6]; 57% in assay [7]. Moreover, the RU, second antibody alone in assay [2] is 460 RU and 260 RU.

Regarding monoclonal antibody NKVSF1, the RU, second antibody alone in assay [8] was 2400 RU and 870 RU and 990 RU; with immobilized KIR 2DS1 [10], 1350 RU; in assay [2], 545 RU and 475 RU. Besides, the percent inhibition of second antibody binding with immobilized KIR 2DS1 [9] came to 45%; in [11], 95%; in assay [12], 68%; in assay [13] it was 2%; in [14], 12%; in assay [15], 90%. The percent inhibition of second antibody binding in assay [16] came out at 8%; in assay [17] it was 95%; in assay [18] it was 18%; in [19], 13%; with immobilized KIR 2DS1 [20] it was 100%; in [21], 85%. Further, the figures for the percent inhibition of second antibody binding (in assay [22]; with immobilized KIR 2DS1 [23]; in assay [24]) were 15%, 100% and 90%, respectively.

GL183 (IgG1 anti KIR2DL3) (antibody): the RU, second antibody alone in assay [8] was 1240 RU and 800 RU and 620 RU. In addition, the percent inhibition of second antibody binding was found to be 40% in assay [25]; 76% in assay [26]; 18% in [27]; 8% in [28]; 75% in assay [29].

With “monoclonal antibody DF200 produced by hybridoma DF200”, the percent inhibition of second antibody binding in the assay with immobilized KIR 2DS1 [30] turned out to be 15%; in assay [31] it was 15%; in the assay with immobilized KIR 2DS1 [32], 87%; in assay [33], 4%; in assay [34] it was 75%; in assay [35], 16%. In addition, the percent inhibition of second antibody binding in assay [36] amounted to 80%; in assay [37], 75%; in [38], 20%; in assay [39] it was 92%; with immobilized KIR 2DS1 [40] it was 70%; in assay [41], 15%. In addition, the results for the percent inhibition of second antibody binding in assay [42], in assay [43] and in assay [44] were 62%, 90% and 27%, respectively. Further, the RU, second antibody alone with immobilized KIR 2DS1 [10] was 900 RU; in assay [2], 600 RU and 350 RU.

These data come from patent US20060263361A1.
